Data from patent US20230372526A1, “PREPARATION METHOD FOR BIS-S[…] ANTIBODY-DRUG CONJUGATE” (MABWELL (SHANGHAI) BIOSCIENCE CO., LTD., priority 2020, published 2023).
*1 amine or outer side, *2 acyl side, *3 side chain or, on linkers, in order; H or OH if unused. Where a SMILES comes first, the peptide text is derived from it. [ ]: non-standard residue; d: D form. The star is where a group is joined. ξ: configuration not given here. Dil(5ξ) = CCC(C)[C@@H]([C@@H](CC(=O)[*:2])OC)N(C)[*:1]; Dolaproine = CO[C@@H]([C@@H]1CCCN1)[C@@H](C)C(=O)O; Hexanoyl(6-maleimido) = O=C1C=CC(=O)N1CCCCCC(=O)*; PABC = O=C(OCc1ccc(N[*:1])cc1)[*:2]; X1 = C[C@@H](N*)[C@@H](O)c1ccccc1; Cit = NC(=O)NCCC[C@H](N)C(=O)O; NMeV = CN[C@H](C(=O)O)C(C)C

Experiment: Hydrolysis of Pertuzumab conjugated samples obtained using different small molecule compounds, hydrolysis percentage by Native MS
Type: physicochemical
Conditions: for hydrolysis of conjugated samples (in words) / 6 h hydrolysis percentage / 18 h hydrolysis percentage: 50 mM PB pH 7.8, 35° C.; for hydrolysis of conjugated samples (in words): summary of Table 3-2; for hydrolysis speed of conjugated samples (in words): hydrolysis systems A-D, pH 7.8, summary of Table 3-3
Procedure: The analysis conditions were as follows: • Capillary activation: the capillary was rinsed with 0.1 mol/L sodium hydroxide for 10 min, 0.1 mol/L hydrochloric acid for 5 min and water for injection for 2 min respectively at 20 psi; and then rinsed with SDS-MW-Gel Buffer for 10 min at 70 psi; afterwards, pre-separation was performed for 10 min at 20 psi, at a column temperature of 25° C. and a voltage of −15 kv. The program was run: at 70 psi, the capillary was rinsed with 0.1 mol/L sodium hydroxide for 3 min, 0.1 mol/L hydrochloric acid for 1 min and water for injection for 1 min respectively; then the gel was poured for 10 min, the sample was loaded for 40 s at −5 kv, and the separation program was run ([…], 20 psi). The column temperature was set to 25° C., the voltage for separation was set to −15 kv, and the separation was performed for 40 min. • (4) Size exclusion chromatography (SEC-HPLC): • Sample treatment: the sample was diluted to 2.0-3.0 mg/ml with the mobile phase, and then was centrifuged at 12000 rpm for 10 min; and the supernatant was taken for analysis. • Chromatographic column: TOSOH, TSKgel G3000SWXL, 5 μm, 7.8 mm×300 mm; • Mobile phase: 100 mM PB+200 mM arginine hydrochloride, 5% isopropanol (pH 6.8); • Flow rate: 0.6 mL/min; • Detection wavelength: 280 nm; • Column temperature: 30° C.; • Loading volume: 10 uL; • Elution gradient: isocratic elution. • (5) Native MS: • Chromatographic column: ACQUITY UPLC Protein BEH SEC 200A (1.7 μm, 2.1 mm×150 mm); • Mobile phase: 50 mM ammonium acetate; • Running time: 12 min; • Flow rate: 0.065 mL/min; • Loading volume: 2 μL; • Column temperature: 30° C.; • Detection wavelength: 280 nm; • Capillary: 3.0 kV; • Cone voltage: 140 V; • Source offset: 80 V; • Source temperature: 125° C.; • Desolvation temperature: 250° C.; • Desolvation gas flow: 600 L/h. • (6) LC-MS:
Pertuzumab was reduced and conjugated as described in section a in Example 2. Conjugated samples obtained using different small molecule compounds were subjected to hydrolysis at 35° C. for a time period in the range of 3-18 hours, in 50 mM sodium dihydrogen phosphate-disodium hydrogen phosphate buffer, pH 7.8. The hydrolysis systems were sampled at different time points, and detected by Native MS.
Pertuzumab was reduced and conjugated as described in section a in Example 2. Conjugated samples obtained using different small molecule compounds were displaced to different hydrolysis solution systems (A: 50 mM sodium dihydrogen phosphate-disodium hydrogen phosphate buffer, pH 7.8; B: 50 mM sodium dihydrogen phosphate-disodium hydrogen phosphate buffer+3% arginine, pH 7.8; C: 50 mM potassium dihydrogen phosphate-dipotassium hydrogen phosphate buffer, pH 7.8; and D: 50 mM tromethamine-hydrochloric acid buffer, pH 7.8) for hydrolysis. Then the hydrolysis systems were sampled at different time points, and detected by Native MS.

[1] = Pertuzumab conjugate, Native MS
[2] = Pertuzumab conjugate, 50 mM sodium dihydrogen phosphate-disodium hydrogen phosphate buffer, pH 7.8, 35° C., Native MS
[3] = hydrolysis system A: 50 mM sodium dihydrogen phosphate-disodium hydrogen phosphate buffer, pH 7.8
[4] = hydrolysis system B: 50 mM sodium phosphate buffer+3% arginine, pH 7.8
[5] = hydrolysis system C: 50 mM potassium dihydrogen phosphate-dipotassium hydrogen phosphate buffer, pH 7.8
[6] = hydrolysis system D: 50 mM tromethamine-hydrochloric acid buffer, pH 7.8

## CCC(C)[C@@H]([C@@H](CC(=O)N1CCC[C@H]1[C@H](OC)[C@@H](C)C(=O)N[C@H](C)[C@@H](O)c1ccccc1)OC)N(C)C(=O)[C@@H](NC(=O)[C@H](C(C)C)N(C)C(=O)OCc1ccc(NC(=O)[C@H](CCCNC(N)=O)NC(=O)[C@@H](NC(=O)COCCOCCOCCOc2c(OC)cc(N3C(=O)C(Sc4ccccc4)=C(Sc4ccccc4)C3=O)cc2OC)C(C)C)cc1)C(C)C (stereo partly shown) [A-2]
  hydrolysis of conjugated samples (in words): relatively low percentage of hydrolysis
[1]
  6 h hydrolysis percentage: 30.33%
  18 h hydrolysis percentage: 48.43%
[2]
  3 h hydrolysis percentage: 17.85%

## CCC(C)[C@@H]([C@@H](CC(=O)N1CCC[C@H]1[C@H](OC)[C@@H](C)C(=O)N[C@H](C)[C@@H](O)c1ccccc1)OC)N(C)C(=O)[C@@H](NC(=O)[C@H](C(C)C)N(C)C(=O)OCc1ccc(NC(=O)[C@H](CCCNC(N)=O)NC(=O)[C@@H](NC(=O)COCCOCCOCCOc2c(F)cc(N3C(=O)C(Sc4ccccc4)=C(Sc4ccccc4)C3=O)cc2F)C(C)C)cc1)C(C)C (stereo partly shown) [A-3]
[3]
  1 h hydrolysis percentage: 89.31%
  3 h hydrolysis percentage: 99.32%
[4]
  1 h hydrolysis percentage: 93.48%
  3 h hydrolysis percentage: 99.41%
[5]
  1 h hydrolysis percentage: 92.52%
  3 h hydrolysis percentage: 99.70%
[6]
  1 h hydrolysis percentage: 90.33%
  3 h hydrolysis percentage: 99.31%
  hydrolysis speed of conjugated samples (in words): hydrolyzed rapidly in all above buffers

## CCC(C)[C@@H]([C@@H](CC(=O)N1CCC[C@H]1[C@H](OC)[C@@H](C)C(=O)N[C@H](C)[C@@H](O)c1ccccc1)OC)N(C)C(=O)[C@@H](NC(=O)[C@H](C(C)C)N(C)C(=O)OCc1ccc(NC(=O)[C@H](CCCNC(N)=O)NC(=O)[C@@H](NC(=O)COCCOCCOCCOc2ccc(N3C(=O)C(Sc4ccccc4)=C(Sc4ccccc4)C3=O)c(C(F)(F)F)c2)C(C)C)cc1)C(C)C (stereo partly shown) [A-4]
  hydrolysis of conjugated samples (in words): relatively low percentage of hydrolysis
  hydrolysis speed of conjugated samples (in words): required more time for being hydrolyzed
[1]
  6 h hydrolysis percentage: 38.49%
  18 h hydrolysis percentage: 53.46%
[2]
  3 h hydrolysis percentage: 25.99%
[3]
  1 h hydrolysis percentage: 15.65%
  3 h hydrolysis percentage: 25.99%
[4]
  1 h hydrolysis percentage: 18.17%
  3 h hydrolysis percentage: 35.23%
[5]
  1 h hydrolysis percentage: 14.98%
  3 h hydrolysis percentage: 26.13%
[6]
  1 h hydrolysis percentage: 14.56%
  3 h hydrolysis percentage: 25.32%

## CCC(C)[C@@H]([C@@H](CC(=O)N1CCC[C@H]1[C@H](OC)[C@@H](C)C(=O)N[C@H](C)[C@@H](O)c1ccccc1)OC)N(C)C(=O)[C@@H](NC(=O)[C@H](C(C)C)N(C)C(=O)OCc1ccc(NC(=O)[C@H](CCCNC(N)=O)NC(=O)[C@@H](NC(=O)COCCOCCOCCOc2ccc(N3C(=O)C(Sc4ccccc4)=C(Sc4ccccc4)C3=O)cn2)C(C)C)cc1)C(C)C (stereo partly shown) [A-5]
[1]
  6 h hydrolysis percentage: 16.76%
  18 h hydrolysis percentage: 28.81%
[2]
  3 h hydrolysis percentage: 7.29%

## CCC(C)[C@@H]([C@@H](CC(=O)N1CCC[C@H]1[C@H](OC)[C@@H](C)C(=O)N[C@H](C)[C@@H](O)c1ccccc1)OC)N(C)C(=O)[C@@H](NC(=O)[C@H](C(C)C)N(C)C(=O)OCc1ccc(NC(=O)[C@H](CCCNC(N)=O)NC(=O)[C@@H](NC(=O)COCCOCCOCCOc2ccc(N3C(=O)C(Sc4ccc(C(=O)NC)cc4)=C(Sc4ccc(C(=O)NC)cc4)C3=O)cc2C(F)(F)F)C(C)C)cc1)C(C)C (stereo partly shown) [B-6]
  hydrolysis of conjugated samples (in words): relatively low percentage of hydrolysis
[1]
  6 h hydrolysis percentage: 33.32%
  18 h hydrolysis percentage: 47.60%
[2]
  3 h hydrolysis percentage: 22.86%

## CCC(C)[C@@H]([C@@H](CC(=O)N1CCC[C@H]1[C@H](OC)[C@@H](C)C(=O)N[C@H](C)[C@@H](O)c1ccccc1)OC)N(C)C(=O)[C@@H](NC(=O)[C@H](C(C)C)N(C)C(=O)OCc1ccc(NC(=O)[C@H](CCCNC(N)=O)NC(=O)[C@@H](NC(=O)COCCOCCOCCOc2ccc(N3C(=O)C(Sc4ccc(C(=O)NC)cc4)=C(Sc4ccc(C(=O)NC)cc4)C3=O)cc2OC)C(C)C)cc1)C(C)C (stereo partly shown) [B-7]
  hydrolysis of conjugated samples (in words): relatively low percentage of hydrolysis
  hydrolysis speed of conjugated samples (in words): required more time for being hydrolyzed
[1]
  6 h hydrolysis percentage: 54.71%
  18 h hydrolysis percentage: 76.15%
[2]
  3 h hydrolysis percentage: 34.10%
[3]
  1 h hydrolysis percentage: 15.83%
  3 h hydrolysis percentage: 34.10%
[4]
  1 h hydrolysis percentage: 26.12%
  3 h hydrolysis percentage: 51.25%
[5]
  1 h hydrolysis percentage: 15.12%
  3 h hydrolysis percentage: 35.12%
[6]
  1 h hydrolysis percentage: 16.62%
  3 h hydrolysis percentage: 36.43%

## CCC(C)[C@@H]([C@@H](CC(=O)N1CCC[C@H]1[C@H](OC)[C@@H](C)C(=O)N[C@H](C)[C@@H](O)c1ccccc1)OC)N(C)C(=O)[C@@H](NC(=O)[C@H](C(C)C)N(C)C(=O)OCc1ccc(NC(=O)[C@H](CCCNC(N)=O)NC(=O)[C@@H](NC(=O)COCCOCCOCCOc2ccc(N3C(=O)C(Sc4ccc(C(=O)N5CCOCC5)cc4)=C(Sc4ccc(C(=O)N5CCOCC5)cc4)C3=O)cc2)C(C)C)cc1)C(C)C (stereo partly shown) [C-1]
  hydrolysis of conjugated samples (in words): hydrolyzed all most completely within 3 hours or 6 hours
  hydrolysis speed of conjugated samples (in words): hydrolyzed rapidly in all above buffers
[1]
  6 h hydrolysis percentage: 98.25%
[2]
  3 h hydrolysis percentage: 79.08%
[3]
  1 h hydrolysis percentage: 85.31%
  3 h hydrolysis percentage: 99.56%
[4]
  1 h hydrolysis percentage: 94.52%
  3 h hydrolysis percentage: 99.87%
[5]
  1 h hydrolysis percentage: 87.52%
  3 h hydrolysis percentage: 99.70%
[6]
  1 h hydrolysis percentage: 84.78%
  3 h hydrolysis percentage: 99.79%

## CCC(C)[C@@H]([C@@H](CC(=O)N1CCC[C@H]1[C@H](OC)[C@@H](C)C(=O)N[C@H](C)[C@@H](O)c1ccccc1)OC)N(C)C(=O)[C@@H](NC(=O)[C@H](C(C)C)N(C)C(=O)OCc1ccc(NC(=O)[C@H](CCCNC(N)=O)NC(=O)[C@@H](NC(=O)COCCOCCOCCOc2c(F)cc(N3C(=O)C(Sc4ccc(C(=O)N5CCOCC5)cc4)=C(Sc4ccc(C(=O)N5CCOCC5)cc4)C3=O)cc2F)C(C)C)cc1)C(C)C (stereo partly shown) [C-3]
  hydrolysis of conjugated samples (in words): hydrolyzed all most completely within 3 hours or 6 hours
  hydrolysis speed of conjugated samples (in words): hydrolyzed rapidly in all above buffers
[1]
  6 h hydrolysis percentage: 99.56%
[2]
  3 h hydrolysis percentage: 98.31%
[3]
  1 h hydrolysis percentage: 90.31%
  3 h hydrolysis percentage: 99.56%
[4]
  1 h hydrolysis percentage: 97.52%
  3 h hydrolysis percentage: 99.41%
[5]
  1 h hydrolysis percentage: 90.55%
  3 h hydrolysis percentage: 99.70%
[6]
  1 h hydrolysis percentage: 88.36%
  3 h hydrolysis percentage: 99.34%

## CCC(C)[C@@H]([C@@H](CC(=O)N1CCC[C@H]1[C@H](OC)[C@@H](C)C(=O)N[C@H](C)[C@@H](O)c1ccccc1)OC)N(C)C(=O)[C@@H](NC(=O)[C@H](C(C)C)N(C)C(=O)OCc1ccc(NC(=O)[C@H](CCCNC(N)=O)NC(=O)[C@@H](NC(=O)CCCCCN2C(=O)C=CC2=O)C(C)C)cc1)C(C)C (stereo partly drawn) [D-1] ({Hexanoyl(6-maleimido)}-V[Cit][PABC][NMeV]V[Dil(5ξ)][Dolaproine]-X1)
[1]
  6 h hydrolysis percentage: 7.67%
  18 h hydrolysis percentage: 21.44%
[2]
  3 h hydrolysis percentage: 4.74%
